Results from US20050148514A1, “Method and composition for treatment of angiogenesis” (priority 2003, published 2005).
Where no end group is shown, it is not given here.

Molecular target: T1, VEGFR-2 (Homo sapiens, UniProt P35968)
T1 construct: host or cells: HUVEC
Test: VEGF-induced VEGFR-2 phosphorylation in HUVEC (immunoprecipitation, western blot)
Type: cell-based
Method: Cell culture. Human umbilical vein endothelial cells (HUVEC) and pulmonary aortic smooth muscle cells (PASMC) were obtained from Clonetics and maintained in endothelial cell basal medium-2, (EBM-2; Clonetics) and smooth muscle medium-2 (SmGM-2; Clonetics), respectively. Cells were cultured at 37° C. under a humidified atmosphere containing 5% CO2. For experimental purposes, cells were plated in 8 100-mm plastic dishes at 5,000 cells/cm^2 and were grown to confluence before overnight serum starvation. Cells were treated with vehicle or with a PCK3145 derivative diluted in 0.1 N NaOH, and stimulated with 50 ng/ml VEGF, PDGF or with 1 μM S1P.
Immunoprecipitation and immunoblotting procedures. After treatment, cells were washed once with phosphate-buffered saline (PBS) containing 1 mM sodium orthovanadate and were incubated in the same medium for 1 h at 4° C. The cells were solubilized on ice in lysis buffer (150 mM NaCl, 10 mM Tris-HCl, pH 7.4, 1 mM EDTA, 1 mM EGTA, 0.5% Nonidet P-40, 1% Triton X-100) containing 1 mM sodium orthovanadate. The cells were then scraped from the culture dishes and the resulting lysates were clarified by centrifugation at 10,000 g for 10 min. Protein concentrations were determined using the micro bicinchoninic acid method. For immunoprecipitation studies, lysates were clarified by a 1 h incubation at 4° C. with a mixture of Protein A/Protein G Sepharose beads. After removal of the Sepharose beads by low-speed centrifugation, identical amounts of protein (200 μg) from each sample were transferred to fresh tubes and incubated in lysis buffer overnight at 4° C. in the presence of 2 μg/ml of specific antibodies. […]
The multifunctionality of VEGF at the cellular level results from its ability to initiate a diverse, complex and integrated network of signaling pathways via its major receptor, VEGFR-2. […] After each treatment, equal amounts of protein were immunoprecipitated with anti-VEGFR-2 polyclonal antibodies and analysed by Western blotting.

T1 sequence (P35968 20-1356): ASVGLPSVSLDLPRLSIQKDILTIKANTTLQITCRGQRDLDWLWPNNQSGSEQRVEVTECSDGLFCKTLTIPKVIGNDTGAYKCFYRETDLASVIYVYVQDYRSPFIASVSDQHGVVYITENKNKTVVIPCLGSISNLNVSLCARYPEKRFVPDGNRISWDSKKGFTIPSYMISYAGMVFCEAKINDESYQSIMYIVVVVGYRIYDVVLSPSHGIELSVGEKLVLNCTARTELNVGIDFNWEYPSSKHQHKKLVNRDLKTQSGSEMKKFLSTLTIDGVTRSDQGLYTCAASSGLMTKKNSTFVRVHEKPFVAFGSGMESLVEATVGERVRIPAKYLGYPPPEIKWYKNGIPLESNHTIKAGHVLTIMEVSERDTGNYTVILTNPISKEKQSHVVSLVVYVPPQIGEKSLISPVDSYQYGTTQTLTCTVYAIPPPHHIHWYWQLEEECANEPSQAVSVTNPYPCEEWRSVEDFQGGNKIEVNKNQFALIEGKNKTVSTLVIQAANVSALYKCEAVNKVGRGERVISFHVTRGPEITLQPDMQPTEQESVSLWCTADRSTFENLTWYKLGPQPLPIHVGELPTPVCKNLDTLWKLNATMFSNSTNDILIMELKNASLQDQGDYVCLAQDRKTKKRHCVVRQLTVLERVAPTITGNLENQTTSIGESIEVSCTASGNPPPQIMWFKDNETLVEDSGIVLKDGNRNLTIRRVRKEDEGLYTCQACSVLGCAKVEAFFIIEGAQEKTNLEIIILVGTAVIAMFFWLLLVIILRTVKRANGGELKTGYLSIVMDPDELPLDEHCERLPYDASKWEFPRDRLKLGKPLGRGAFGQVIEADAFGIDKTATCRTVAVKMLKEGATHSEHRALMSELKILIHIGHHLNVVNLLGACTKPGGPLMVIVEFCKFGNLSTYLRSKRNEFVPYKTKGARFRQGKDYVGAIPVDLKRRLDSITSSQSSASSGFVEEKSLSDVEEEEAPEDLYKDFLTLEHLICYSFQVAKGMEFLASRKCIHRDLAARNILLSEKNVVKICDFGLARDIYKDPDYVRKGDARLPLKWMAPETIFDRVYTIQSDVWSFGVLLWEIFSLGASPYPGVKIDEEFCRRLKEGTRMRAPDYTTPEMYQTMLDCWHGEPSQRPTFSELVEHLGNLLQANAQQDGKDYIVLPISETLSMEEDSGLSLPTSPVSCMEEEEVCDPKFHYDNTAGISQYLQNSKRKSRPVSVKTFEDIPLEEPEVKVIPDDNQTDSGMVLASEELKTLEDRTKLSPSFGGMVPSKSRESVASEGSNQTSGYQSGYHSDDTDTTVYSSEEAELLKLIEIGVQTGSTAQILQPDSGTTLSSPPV

dose dependence of inhibition of VEGF-induced VEGFR-2 phosphorylation (HUVEC): dose-dependent
phosphorylation of VEGFR-2 induced by VEGF (serum-starved HUVEC, 300 μg/ml, 24 h): inhibited
Sequence: EWQTDNCETCTCYET (cysteine pairing not given here)
